Tests used:
Assay in all cases: IP/MS, LZTR1 R810W-FLAG, U87
SBNO2 = biological target: T1, SBNO2 (human, UniProt Q9Y2G9 1-1366, limits assumed)
T1 sequence (looked up): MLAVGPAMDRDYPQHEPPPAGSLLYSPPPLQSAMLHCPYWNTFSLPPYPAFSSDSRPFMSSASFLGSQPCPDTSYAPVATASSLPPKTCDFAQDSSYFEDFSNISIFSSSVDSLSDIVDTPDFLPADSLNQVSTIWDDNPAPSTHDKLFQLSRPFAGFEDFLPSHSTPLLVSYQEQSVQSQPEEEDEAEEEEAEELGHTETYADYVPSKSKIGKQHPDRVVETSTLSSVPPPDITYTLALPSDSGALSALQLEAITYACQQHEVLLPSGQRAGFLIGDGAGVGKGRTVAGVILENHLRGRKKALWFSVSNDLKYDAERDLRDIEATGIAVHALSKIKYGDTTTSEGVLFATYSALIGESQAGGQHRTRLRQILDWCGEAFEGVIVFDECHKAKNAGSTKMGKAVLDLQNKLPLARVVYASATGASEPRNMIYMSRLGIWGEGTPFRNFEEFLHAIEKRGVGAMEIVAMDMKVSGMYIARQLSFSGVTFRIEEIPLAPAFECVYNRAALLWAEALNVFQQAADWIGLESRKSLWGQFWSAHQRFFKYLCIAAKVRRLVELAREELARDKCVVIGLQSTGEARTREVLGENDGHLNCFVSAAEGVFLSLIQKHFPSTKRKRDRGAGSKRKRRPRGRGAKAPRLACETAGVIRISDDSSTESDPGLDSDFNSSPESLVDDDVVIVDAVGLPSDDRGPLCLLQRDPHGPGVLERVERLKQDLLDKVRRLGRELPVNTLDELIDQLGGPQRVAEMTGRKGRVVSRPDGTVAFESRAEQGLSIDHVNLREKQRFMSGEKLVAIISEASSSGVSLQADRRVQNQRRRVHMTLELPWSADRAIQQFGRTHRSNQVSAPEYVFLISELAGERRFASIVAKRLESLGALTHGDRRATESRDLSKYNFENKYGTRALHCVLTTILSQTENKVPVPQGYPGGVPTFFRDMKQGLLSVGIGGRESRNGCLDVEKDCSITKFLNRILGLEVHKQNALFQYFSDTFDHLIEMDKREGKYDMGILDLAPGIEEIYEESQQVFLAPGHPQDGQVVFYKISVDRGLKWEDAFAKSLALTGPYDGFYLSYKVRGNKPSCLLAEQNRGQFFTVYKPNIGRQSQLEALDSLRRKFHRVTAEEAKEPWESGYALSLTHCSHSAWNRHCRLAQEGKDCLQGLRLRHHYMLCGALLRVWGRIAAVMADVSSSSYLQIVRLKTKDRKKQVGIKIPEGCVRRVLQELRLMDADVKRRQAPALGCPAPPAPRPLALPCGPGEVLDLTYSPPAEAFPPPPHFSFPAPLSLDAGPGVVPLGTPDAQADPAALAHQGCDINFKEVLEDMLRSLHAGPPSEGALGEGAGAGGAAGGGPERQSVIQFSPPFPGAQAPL
Procedure, shortened: (§1)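 Read-out: spectral counts from LC-MS/MS (Orbitrap Fusion) after MaxQuant identification. Variable modifications were Met oxidation, protein N-terminal acetylation and N/Q deamidation.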

EMC1 = biological target: T2, EMC1 (human, UniProt Q8N766 23-993, limits assumed)
T2 sequence (looked up): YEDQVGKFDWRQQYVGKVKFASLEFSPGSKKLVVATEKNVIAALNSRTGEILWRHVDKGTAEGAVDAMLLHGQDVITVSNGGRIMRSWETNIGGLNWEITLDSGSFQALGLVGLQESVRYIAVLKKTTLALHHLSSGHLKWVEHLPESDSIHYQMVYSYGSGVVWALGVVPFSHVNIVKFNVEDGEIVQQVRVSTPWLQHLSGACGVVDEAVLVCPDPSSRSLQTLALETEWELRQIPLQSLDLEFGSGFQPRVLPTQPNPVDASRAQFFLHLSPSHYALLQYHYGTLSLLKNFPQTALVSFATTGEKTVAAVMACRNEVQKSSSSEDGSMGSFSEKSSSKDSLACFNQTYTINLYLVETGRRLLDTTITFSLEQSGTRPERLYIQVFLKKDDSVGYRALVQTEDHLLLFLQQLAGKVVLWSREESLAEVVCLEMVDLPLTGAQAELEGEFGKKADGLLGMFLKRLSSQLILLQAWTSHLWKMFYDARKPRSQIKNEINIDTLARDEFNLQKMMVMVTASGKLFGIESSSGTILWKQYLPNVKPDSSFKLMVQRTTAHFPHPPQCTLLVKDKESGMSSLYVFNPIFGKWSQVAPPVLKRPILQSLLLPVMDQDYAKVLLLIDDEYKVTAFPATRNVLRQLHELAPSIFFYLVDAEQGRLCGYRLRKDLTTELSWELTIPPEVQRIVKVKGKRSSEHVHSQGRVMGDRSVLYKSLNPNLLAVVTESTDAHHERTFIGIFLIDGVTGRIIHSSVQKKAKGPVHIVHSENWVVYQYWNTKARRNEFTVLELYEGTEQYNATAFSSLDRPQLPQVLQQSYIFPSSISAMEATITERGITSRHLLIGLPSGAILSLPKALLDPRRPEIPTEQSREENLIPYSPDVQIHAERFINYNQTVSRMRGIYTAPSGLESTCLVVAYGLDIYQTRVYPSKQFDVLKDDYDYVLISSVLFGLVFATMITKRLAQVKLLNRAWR
Procedure, shortened: as §1

DMXL2 = DMXL2 (human, UniProt Q8TDJ6 1-3036, limits assumed)
Procedure, shortened: as §1

Measured: binding result

Chain of DMXL2 (Q8TDJ6 whole entry): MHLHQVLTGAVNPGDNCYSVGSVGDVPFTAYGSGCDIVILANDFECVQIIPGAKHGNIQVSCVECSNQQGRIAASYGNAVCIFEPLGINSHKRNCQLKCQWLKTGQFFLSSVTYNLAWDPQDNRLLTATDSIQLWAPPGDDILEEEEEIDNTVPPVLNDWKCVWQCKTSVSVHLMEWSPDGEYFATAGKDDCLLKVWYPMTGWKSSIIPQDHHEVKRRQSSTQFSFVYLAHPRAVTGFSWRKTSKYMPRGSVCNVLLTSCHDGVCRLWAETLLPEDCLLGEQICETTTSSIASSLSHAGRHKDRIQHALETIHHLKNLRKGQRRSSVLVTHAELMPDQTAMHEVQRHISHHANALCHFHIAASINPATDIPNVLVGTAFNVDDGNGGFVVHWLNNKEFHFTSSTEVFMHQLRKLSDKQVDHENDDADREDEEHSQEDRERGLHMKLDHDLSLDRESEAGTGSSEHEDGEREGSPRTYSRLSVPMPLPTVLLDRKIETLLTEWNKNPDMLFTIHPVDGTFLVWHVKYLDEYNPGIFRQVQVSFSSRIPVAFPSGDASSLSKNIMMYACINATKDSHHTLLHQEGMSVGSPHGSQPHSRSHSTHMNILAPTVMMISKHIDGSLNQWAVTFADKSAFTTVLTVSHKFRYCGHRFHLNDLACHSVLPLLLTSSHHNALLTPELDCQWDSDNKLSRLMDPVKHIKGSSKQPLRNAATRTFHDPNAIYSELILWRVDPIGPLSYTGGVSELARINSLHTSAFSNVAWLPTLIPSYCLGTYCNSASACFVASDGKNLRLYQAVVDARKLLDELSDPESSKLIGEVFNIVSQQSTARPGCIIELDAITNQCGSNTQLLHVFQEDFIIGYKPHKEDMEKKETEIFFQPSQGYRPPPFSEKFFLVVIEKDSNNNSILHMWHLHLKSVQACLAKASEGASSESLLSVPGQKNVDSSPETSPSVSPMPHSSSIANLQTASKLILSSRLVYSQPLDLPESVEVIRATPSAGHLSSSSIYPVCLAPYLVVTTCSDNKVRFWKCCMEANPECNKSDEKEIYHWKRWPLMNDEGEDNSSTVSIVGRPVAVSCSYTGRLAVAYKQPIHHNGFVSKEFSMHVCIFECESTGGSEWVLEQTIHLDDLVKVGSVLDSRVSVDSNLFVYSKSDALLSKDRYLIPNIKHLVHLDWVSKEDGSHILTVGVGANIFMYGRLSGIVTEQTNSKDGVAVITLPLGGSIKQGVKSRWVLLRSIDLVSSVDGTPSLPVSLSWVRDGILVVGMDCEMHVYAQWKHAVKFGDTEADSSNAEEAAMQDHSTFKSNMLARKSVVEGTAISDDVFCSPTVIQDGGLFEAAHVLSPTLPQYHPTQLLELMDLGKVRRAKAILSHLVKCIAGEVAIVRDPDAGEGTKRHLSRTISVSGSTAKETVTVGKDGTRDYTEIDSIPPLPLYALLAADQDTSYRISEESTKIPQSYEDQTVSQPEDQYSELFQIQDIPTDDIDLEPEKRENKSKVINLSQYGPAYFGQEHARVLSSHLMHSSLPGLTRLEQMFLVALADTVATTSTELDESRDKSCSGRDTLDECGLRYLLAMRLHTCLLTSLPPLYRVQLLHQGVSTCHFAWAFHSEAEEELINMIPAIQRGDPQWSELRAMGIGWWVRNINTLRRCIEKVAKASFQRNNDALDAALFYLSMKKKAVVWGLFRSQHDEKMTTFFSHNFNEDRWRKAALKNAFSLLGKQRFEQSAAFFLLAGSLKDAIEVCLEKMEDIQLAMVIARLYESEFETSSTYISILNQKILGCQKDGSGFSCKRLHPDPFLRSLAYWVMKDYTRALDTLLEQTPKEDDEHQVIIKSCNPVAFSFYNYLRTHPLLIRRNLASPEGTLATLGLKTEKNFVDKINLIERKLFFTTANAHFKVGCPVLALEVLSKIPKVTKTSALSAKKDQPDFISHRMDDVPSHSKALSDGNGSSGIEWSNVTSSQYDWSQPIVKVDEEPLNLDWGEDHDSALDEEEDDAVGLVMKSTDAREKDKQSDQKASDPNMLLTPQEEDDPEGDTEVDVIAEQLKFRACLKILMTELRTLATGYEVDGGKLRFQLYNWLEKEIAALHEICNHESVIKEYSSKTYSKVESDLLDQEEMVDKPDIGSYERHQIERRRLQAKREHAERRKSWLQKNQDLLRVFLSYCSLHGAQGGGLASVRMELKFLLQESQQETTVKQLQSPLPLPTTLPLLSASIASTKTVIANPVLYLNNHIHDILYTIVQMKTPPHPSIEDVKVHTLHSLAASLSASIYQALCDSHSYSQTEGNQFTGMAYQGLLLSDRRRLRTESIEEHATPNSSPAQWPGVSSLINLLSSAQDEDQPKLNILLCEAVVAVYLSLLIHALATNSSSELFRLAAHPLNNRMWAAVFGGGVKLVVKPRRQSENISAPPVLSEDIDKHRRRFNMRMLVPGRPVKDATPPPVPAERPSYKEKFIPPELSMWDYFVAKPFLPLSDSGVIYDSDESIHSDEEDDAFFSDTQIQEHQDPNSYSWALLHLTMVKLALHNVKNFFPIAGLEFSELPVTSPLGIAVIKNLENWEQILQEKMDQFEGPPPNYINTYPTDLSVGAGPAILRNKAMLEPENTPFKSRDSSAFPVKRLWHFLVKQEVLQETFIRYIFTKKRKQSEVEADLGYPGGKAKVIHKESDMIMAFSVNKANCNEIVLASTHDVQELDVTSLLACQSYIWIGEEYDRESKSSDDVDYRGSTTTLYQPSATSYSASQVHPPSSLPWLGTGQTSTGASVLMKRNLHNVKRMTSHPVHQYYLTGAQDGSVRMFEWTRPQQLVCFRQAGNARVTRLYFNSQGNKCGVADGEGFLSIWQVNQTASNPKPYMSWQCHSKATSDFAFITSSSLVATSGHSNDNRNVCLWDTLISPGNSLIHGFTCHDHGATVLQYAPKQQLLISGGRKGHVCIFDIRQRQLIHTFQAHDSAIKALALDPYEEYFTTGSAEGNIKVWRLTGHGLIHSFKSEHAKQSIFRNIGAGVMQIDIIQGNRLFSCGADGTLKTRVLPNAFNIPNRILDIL

B1: LZTR1 R810W-FLAG (other, human, UniProt Q8N653 1-840, looked up)
chain: MAGPGSTGGQIGAAALAGGARSKVAPSVDFDHSCSDSVEYLTLNFGPFETVHRWRRLPPCDEFVGARRSKHTVVAYKDAIYVFGGDNGKTMLNDLLRFDVKDCSWCRAFTTGTPPAPRYHHSAVVYGSSMFVFGGYTGDIYSNSNLKNKNDLFEYKFATGQWTEWKIEGRLPVARSAHGATVYSDKLWIFAGYDGNARLNDMWTIGLQDRELTCWEEVAQSGEIPPSCCNFPVAVCRDKMFVFSGQSGAKITNNLFQFEFKDKTWTRIPTEHLLRGSPPPPQRRYGHTMVAFDRHLYVFGGAADNTLPNELHCYDVDFQTWEVVQPSSDSEVGGAEVPERACASEEVPTLTYEERVGFKKSRDVFGLDFGTTSAKQPTQPASELPSGRLFHAAAVISDAMYIFGGTVDNNIRSGEMYRFQFSCYPKCTLHEDYGRLWESRQFCDVEFVLGEKEECVQGHVAIVTARSRWLRRKITQARERLAQKLEQEAAPVPREAPGVAAGGARPPLLHVAIREAEARPFEVLMQFLYTDKIKYPRKGHVEDVLLIMDVYKLALSFQLCRLEQLCRQYIEASVDLQNVLVVCESAARLQLSQLKEHCLNFVVKESHFNQVIMMKEFERLSSPLIVEIVRRKQQPPPRTPLDQPVDIGTSLIQDMKAYLEGAGAEFCDITLLLDGHPRPAHKAILAARSSYFEAMFRSFMPEDGQVNISIGEMVPSRQAFESMLRYIYYGEVNMPPEDSLYLFAAPYYYGFYNNRLQAYCKQNLEMNVTVQNVLQILEAADKTQALDMKRHCLHIIVHQFTKVSKLPTLWSLSQQLLLDIIDSLASHISDKQCAELGADI
notes: Stably expressed in U87 cells by lentivirus; also called LZTR1-FLAG-R810W; LZTR1 RW; not shown: FLAG tag
binds: all assays above
